The results in this text go back to patent US20110098212A1.

Where two headings read alike, the source gives them in different places.

A word on the IC50: it is the point on the concentration scale where inhibition reaches its midpoint. Read a low IC50 as inhibition by little substance.

Experiment [1] deals with chemokine receptor CCR8 (human) (UniProt P51685). Description: cell-based or functional assay.
The target in experiment [2] is chemokine receptor CCR4 (human) (UniProt P51679). As to the kind of experiment: cell-based or functional assay.
The target in experiment [3] is human chemokine receptor CCR5 (human), P51681. Description: cell-based or functional assay.
Experiment [4] addresses T1, chemokine receptor CCR1 (human), P32246.
T1 chain: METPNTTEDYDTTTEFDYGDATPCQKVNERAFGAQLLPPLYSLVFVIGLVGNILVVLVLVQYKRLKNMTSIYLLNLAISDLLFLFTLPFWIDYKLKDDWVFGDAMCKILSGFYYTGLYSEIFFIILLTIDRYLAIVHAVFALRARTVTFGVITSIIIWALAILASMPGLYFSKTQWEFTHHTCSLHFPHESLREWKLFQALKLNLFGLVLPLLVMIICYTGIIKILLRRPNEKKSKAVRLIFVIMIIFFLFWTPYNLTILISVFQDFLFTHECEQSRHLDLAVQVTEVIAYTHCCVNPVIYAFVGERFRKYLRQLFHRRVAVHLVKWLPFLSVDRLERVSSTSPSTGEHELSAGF
Description: cell-based or functional assay.

Experiment [5] concerns the target human chemokine receptor CCR5 (human), P51681. Description: competition binding against 166 pM 125I-CCL3 on human PBMCs.
Experiment [6] shares this target.

human chemokine receptor CCR5 (human), P51681, sequence (P51681 whole entry): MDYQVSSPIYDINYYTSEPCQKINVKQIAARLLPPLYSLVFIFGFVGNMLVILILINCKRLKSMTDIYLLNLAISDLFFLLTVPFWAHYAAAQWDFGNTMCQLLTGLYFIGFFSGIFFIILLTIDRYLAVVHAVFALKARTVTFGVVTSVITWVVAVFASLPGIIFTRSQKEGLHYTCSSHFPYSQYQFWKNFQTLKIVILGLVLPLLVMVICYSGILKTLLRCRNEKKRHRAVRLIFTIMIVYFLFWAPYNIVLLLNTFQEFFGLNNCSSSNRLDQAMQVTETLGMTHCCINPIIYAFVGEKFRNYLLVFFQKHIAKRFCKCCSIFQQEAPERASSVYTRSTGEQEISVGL
chemokine receptor CCR8 (human), sequence (P51685 whole entry): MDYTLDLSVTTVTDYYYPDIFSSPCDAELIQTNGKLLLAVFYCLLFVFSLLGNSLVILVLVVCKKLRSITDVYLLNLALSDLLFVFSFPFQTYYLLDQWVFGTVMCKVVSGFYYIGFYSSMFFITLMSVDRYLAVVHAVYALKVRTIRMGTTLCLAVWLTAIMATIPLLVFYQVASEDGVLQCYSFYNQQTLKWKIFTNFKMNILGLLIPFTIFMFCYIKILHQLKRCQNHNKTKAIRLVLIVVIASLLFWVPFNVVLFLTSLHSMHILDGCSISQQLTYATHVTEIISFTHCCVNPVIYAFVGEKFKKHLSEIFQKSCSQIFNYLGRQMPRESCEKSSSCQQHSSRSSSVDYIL
chemokine receptor CCR4 (human), sequence (P51679 whole entry): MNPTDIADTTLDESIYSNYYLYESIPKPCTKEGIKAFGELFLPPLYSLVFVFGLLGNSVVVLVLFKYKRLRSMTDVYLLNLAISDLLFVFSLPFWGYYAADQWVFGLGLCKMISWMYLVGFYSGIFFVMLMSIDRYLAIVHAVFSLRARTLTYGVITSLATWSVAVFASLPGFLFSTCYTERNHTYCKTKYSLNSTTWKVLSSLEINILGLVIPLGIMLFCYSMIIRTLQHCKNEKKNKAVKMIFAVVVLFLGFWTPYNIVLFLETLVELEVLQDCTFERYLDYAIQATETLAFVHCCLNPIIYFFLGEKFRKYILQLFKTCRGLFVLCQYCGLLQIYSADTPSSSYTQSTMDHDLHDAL

B1: CCL1/I309 (ligand, human, UniProt P22362 24-96, looked up)
chain: KSMQVPFSRCCFSFAEQEIPLRAILCYRNTSSICSNEGLIFKLKRGKEACALDTVGWVQRHRKMLRHCPSKRK
Regarding B1, in experiment [1], the EC50, calcium mobilisation in CCR8-CHO cells is 3.87 nM and the chemotaxis of HUT78 cells, concentration of maximal efficacy came to 1 nM.

B2: CCL22 (ligand, human, UniProt O00626 25-93, looked up)
chain: GPYGANMEDSVCCRDYVRYRLPLRVVKHFYWTSDSCPRPGVVLLTFRDKEICADPRVPWVKMILNKLSQ
Molecule B2 came in with a chemotaxis of HUT78 cells, concentration of maximal efficacy in experiment [2] of 10 nM.
Take FICSSPDAELFSEKSRMSSSVLLGCLLCCMDWSAAVPV (modifications not checked) [U83A-Npep, N-terminal spliced truncated form of U83A]: in experiment [3], the inhibition of HIV-1 YU2 infection at 50 nM is below 50% and the reduction of HIV-1 JRCSF infectivity on CEM-NKR-CCR5-luc cells at 5 uM amounted to 90%. In experiment [4], the blocking of CCL3 induced calcium flux in CCR1-CHO cells by 100 nM pre-treatment is 50% and the blocking of the calcium response to 10 nM U83A in CCR1-CHO cells by 100 nM pre-treatment is 50%. Further, the IC50 in experiment [5] was 92 nM. In addition, in experiment [6], the IC50 was found to be 8.3 nM.
